Measured values published in patent publication US10941182 (Amgen, dated 2021).
Starred links: 1 amine or outer side, 2 acyl side, 3 side chain; linkers in the order of their positions; H or OH if unused. Non-standard residues stand in square brackets, D forms with d. Primed or numbered codes have the meaning given here. *: point of attachment. NPipG = 2-(piperidin-4-ylamino)acetic acid, O=C(CN(C1CCN([*:3])CC1)[*:1])[*:2]; AC4Abu = α-carboxy-4-aminobutyric acid, O=C(C(CCN[*:1])C(=O)[*:3])[*:2]; Oic = O=C(O)[C@@H]1C[C@@H]2CCCC[C@@H]2N1; Phe(4-Cl) = N[C@@H](Cc1ccc(Cl)cc1)C(=O)O; Phe(4-F) = N[C@@H](Cc1ccc(F)cc1)C(=O)O; γGlu = O=C(O)[C@H](CCC(=O)[*:2])N[*:1]; d(β3hF) = N[C@@H](CC(=O)O)Cc1ccccc1; Igl = N[C@H](C(=O)O)C1Cc2ccccc2C1; NMeR = CN[C@@H](CCCNC(=N)N)C(=O)O; Palmitoyl = CCCCCCCCCCCCCCCC(=O)*; 3Pal = N[C@@H](Cc1cccnc1)C(=O)O; Cha = N[C@@H](CC1CCCCC1)C(=O)O; αMeOrn = C[C@](N)(CCCN)C(=O)O; β3hP = O=C(O)C[C@@H]1CCCN1; Nle = CCCC[C@H](N)C(=O)O; Dab = NCC[C@H](N)C(=O)O; Pip′ = not defined here; Dap = NC[C@H](N)C(=O)O; AEEA = NCCOCCOCC(=O)O; Aib = CC(C)(N)C(=O)O; NPrGly = CCCNCC(=O)O; Sar = CNCC(=O)O

T1: rat APJ receptor (rat, UniProt Q9JHG3 1-377)
T1 sequence (looked up): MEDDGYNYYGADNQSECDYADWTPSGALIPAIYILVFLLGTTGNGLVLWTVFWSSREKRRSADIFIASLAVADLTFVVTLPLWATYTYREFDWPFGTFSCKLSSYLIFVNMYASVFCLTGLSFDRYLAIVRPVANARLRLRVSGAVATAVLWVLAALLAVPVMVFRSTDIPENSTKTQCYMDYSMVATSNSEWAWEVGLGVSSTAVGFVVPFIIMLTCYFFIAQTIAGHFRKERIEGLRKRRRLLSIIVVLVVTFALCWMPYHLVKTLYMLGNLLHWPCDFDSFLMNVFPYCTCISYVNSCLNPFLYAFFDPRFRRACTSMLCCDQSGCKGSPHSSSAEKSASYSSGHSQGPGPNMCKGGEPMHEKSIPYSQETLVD

T2: human APJ receptor (human, UniProt P35414 1-380)
T2 sequence (looked up): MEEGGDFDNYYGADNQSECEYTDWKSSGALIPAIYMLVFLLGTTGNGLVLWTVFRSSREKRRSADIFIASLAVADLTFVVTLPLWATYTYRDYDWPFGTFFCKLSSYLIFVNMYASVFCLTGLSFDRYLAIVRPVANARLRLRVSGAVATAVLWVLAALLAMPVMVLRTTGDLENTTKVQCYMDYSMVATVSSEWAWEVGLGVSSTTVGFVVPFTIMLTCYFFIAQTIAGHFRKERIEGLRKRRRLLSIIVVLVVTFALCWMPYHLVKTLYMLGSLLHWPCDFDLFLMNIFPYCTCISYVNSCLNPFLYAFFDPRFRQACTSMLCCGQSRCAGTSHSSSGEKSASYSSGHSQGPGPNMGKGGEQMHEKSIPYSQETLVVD

B1: SEQ ID NO: 626 (peptide)
peptide: Palmitoyl-[γGlu][AEEA][AEEA][dQ]RP[NMeR][Cha]SHK[Sar][Oic][Nle][β3hP][d(β3hF)]-OH
SMILES: CCCCCCCCCCCCCCCC(=O)N[C@@H](CCC(=O)NCCOCCOCC(=O)NCCOCCOCC(=O)N[C@H](CCC(N)=O)C(=O)N[C@@H](CCCNC(=N)N)C(=O)N1CCC[C@H]1C(=O)N(C)[C@@H](CCCNC(=N)N)C(=O)N[C@@H](CC1CCCCC1)C(=O)N[C@@H](CO)C(=O)N[C@@H](Cc1c[nH]cn1)C(=O)N[C@@H](CCCCN)C(=O)N(C)CC(=O)N1[C@H](C(=O)N[C@@H](CCCC)C(=O)N2CCC[C@H]2CC(=O)N[C@@H](CC(=O)O)Cc2ccccc2)C[C@@H]2CCCC[C@@H]21)C(=O)O
B2: SEQ ID NO: 624 (peptide)
peptide: Palmitoyl-[γGlu][AEEA][AEEA][dQ]RP[NMeR][Cha]SH[Dap]G[Oic][Nle][β3hP][d(β3hF)]-OH
SMILES: CCCCCCCCCCCCCCCC(=O)N[C@@H](CCC(=O)NCCOCCOCC(=O)NCCOCCOCC(=O)N[C@H](CCC(N)=O)C(=O)N[C@@H](CCCNC(=N)N)C(=O)N1CCC[C@H]1C(=O)N(C)[C@@H](CCCNC(=N)N)C(=O)N[C@@H](CC1CCCCC1)C(=O)N[C@@H](CO)C(=O)N[C@@H](Cc1c[nH]cn1)C(=O)N[C@@H](CN)C(=O)NCC(=O)N1[C@H](C(=O)N[C@@H](CCCC)C(=O)N2CCC[C@H]2CC(=O)N[C@@H](CC(=O)O)Cc2ccccc2)C[C@@H]2CCCC[C@@H]21)C(=O)O
B3: SEQ ID NO: 625 (peptide)
peptide: Palmitoyl-[γGlu][AEEA][AEEA][dQ]RP[NMeR][Cha]SH[Igl]G[Oic][Nle][β3hP][d(β3hF)]-OH
SMILES: CCCCCCCCCCCCCCCC(=O)N[C@@H](CCC(=O)NCCOCCOCC(=O)NCCOCCOCC(=O)N[C@H](CCC(N)=O)C(=O)N[C@@H](CCCNC(=N)N)C(=O)N1CCC[C@H]1C(=O)N(C)[C@@H](CCCNC(=N)N)C(=O)N[C@@H](CC1CCCCC1)C(=O)N[C@@H](CO)C(=O)N[C@@H](Cc1c[nH]cn1)C(=O)N[C@H](C(=O)NCC(=O)N1[C@H](C(=O)N[C@@H](CCCC)C(=O)N2CCC[C@H]2CC(=O)N[C@@H](CC(=O)O)Cc2ccccc2)C[C@@H]2CCCC[C@@H]21)C1Cc2ccccc2C1)C(=O)O
B4: SEQ ID NO: 613 (peptide)
peptide: Palmitoyl-[γGlu][AEEA][AEEA][dQ]RP[NMeR][Cha]SHKG[β3hP][Nle][Phe(4-Cl)]-OH
SMILES: CCCCCCCCCCCCCCCC(=O)N[C@@H](CCC(=O)NCCOCCOCC(=O)NCCOCCOCC(=O)N[C@H](CCC(N)=O)C(=O)N[C@@H](CCCNC(=N)N)C(=O)N1CCC[C@H]1C(=O)N(C)[C@@H](CCCNC(=N)N)C(=O)N[C@@H](CC1CCCCC1)C(=O)N[C@@H](CO)C(=O)N[C@@H](Cc1c[nH]cn1)C(=O)N[C@@H](CCCCN)C(=O)NCC(=O)N1CCC[C@H]1CC(=O)N[C@@H](CCCC)C(=O)N[C@@H](Cc1ccc(Cl)cc1)C(=O)O)C(=O)O
B5: SEQ ID NO: 623 (peptide)
peptide: Palmitoyl-[γGlu][AEEA][AEEA][dQ]RP[NMeR][Cha]SH[Dab]G[Oic][Nle][β3hP][d(β3hF)]-OH
SMILES: CCCCCCCCCCCCCCCC(=O)N[C@@H](CCC(=O)NCCOCCOCC(=O)NCCOCCOCC(=O)N[C@H](CCC(N)=O)C(=O)N[C@@H](CCCNC(=N)N)C(=O)N1CCC[C@H]1C(=O)N(C)[C@@H](CCCNC(=N)N)C(=O)N[C@@H](CC1CCCCC1)C(=O)N[C@@H](CO)C(=O)N[C@@H](Cc1c[nH]cn1)C(=O)N[C@@H](CCN)C(=O)NCC(=O)N1[C@H](C(=O)N[C@@H](CCCC)C(=O)N2CCC[C@H]2CC(=O)N[C@@H](CC(=O)O)Cc2ccccc2)C[C@@H]2CCCC[C@@H]21)C(=O)O
B6: SEQ ID NO: 633 (peptide)
peptide: Palmitoyl-[γGlu][AEEA][AEEA][dQ]RP[NMeR][Cha]SH[NPipG]G[Oic][Nle][β3hP][d(β3hF)]-OH
SMILES: CCCCCCCCCCCCCCCC(=O)N[C@@H](CCC(=O)NCCOCCOCC(=O)NCCOCCOCC(=O)N[C@H](CCC(N)=O)C(=O)N[C@@H](CCCNC(=N)N)C(=O)N1CCC[C@H]1C(=O)N(C)[C@@H](CCCNC(=N)N)C(=O)N[C@@H](CC1CCCCC1)C(=O)N[C@@H](CO)C(=O)N[C@@H](Cc1c[nH]cn1)C(=O)N(CC(=O)NCC(=O)N1[C@H](C(=O)N[C@@H](CCCC)C(=O)N2CCC[C@H]2CC(=O)N[C@@H](CC(=O)O)Cc2ccccc2)C[C@@H]2CCCC[C@@H]21)C1CCNCC1)C(=O)O
B7: SEQ ID NO: 621 (peptide)
peptide: Palmitoyl-[γGlu][AEEA][AEEA][dQ]RP[NMeR][Cha]SH[Phe(4-Cl)]G[Oic][Nle][β3hP][d(β3hF)]-OH
SMILES: CCCCCCCCCCCCCCCC(=O)N[C@@H](CCC(=O)NCCOCCOCC(=O)NCCOCCOCC(=O)N[C@H](CCC(N)=O)C(=O)N[C@@H](CCCNC(=N)N)C(=O)N1CCC[C@H]1C(=O)N(C)[C@@H](CCCNC(=N)N)C(=O)N[C@@H](CC1CCCCC1)C(=O)N[C@@H](CO)C(=O)N[C@@H](Cc1c[nH]cn1)C(=O)N[C@@H](Cc1ccc(Cl)cc1)C(=O)NCC(=O)N1[C@H](C(=O)N[C@@H](CCCC)C(=O)N2CCC[C@H]2CC(=O)N[C@@H](CC(=O)O)Cc2ccccc2)C[C@@H]2CCCC[C@@H]21)C(=O)O
B8: SEQ ID NO: 622 (peptide)
peptide: Palmitoyl-[γGlu][AEEA][AEEA][dQ]RP[NMeR][Cha]SH[Phe(4-F)]G[Oic][Nle][β3hP][d(β3hF)]-OH
SMILES: CCCCCCCCCCCCCCCC(=O)N[C@@H](CCC(=O)NCCOCCOCC(=O)NCCOCCOCC(=O)N[C@H](CCC(N)=O)C(=O)N[C@@H](CCCNC(=N)N)C(=O)N1CCC[C@H]1C(=O)N(C)[C@@H](CCCNC(=N)N)C(=O)N[C@@H](CC1CCCCC1)C(=O)N[C@@H](CO)C(=O)N[C@@H](Cc1c[nH]cn1)C(=O)N[C@@H](Cc1ccc(F)cc1)C(=O)NCC(=O)N1[C@H](C(=O)N[C@@H](CCCC)C(=O)N2CCC[C@H]2CC(=O)N[C@@H](CC(=O)O)Cc2ccccc2)C[C@@H]2CCCC[C@@H]21)C(=O)O
B9: SEQ ID NO: 620 (peptide)
peptide: Palmitoyl-[γGlu][AEEA][AEEA][dQ]RP[NMeR][Cha]SH[3Pal]G[Oic][Nle][β3hP][d(β3hF)]-OH
SMILES: CCCCCCCCCCCCCCCC(=O)N[C@@H](CCC(=O)NCCOCCOCC(=O)NCCOCCOCC(=O)N[C@H](CCC(N)=O)C(=O)N[C@@H](CCCNC(=N)N)C(=O)N1CCC[C@H]1C(=O)N(C)[C@@H](CCCNC(=N)N)C(=O)N[C@@H](CC1CCCCC1)C(=O)N[C@@H](CO)C(=O)N[C@@H](Cc1c[nH]cn1)C(=O)N[C@@H](Cc1cccnc1)C(=O)NCC(=O)N1[C@H](C(=O)N[C@@H](CCCC)C(=O)N2CCC[C@H]2CC(=O)N[C@@H](CC(=O)O)Cc2ccccc2)C[C@@H]2CCCC[C@@H]21)C(=O)O
B10: SEQ ID NO: 616 (peptide)
peptide: Palmitoyl-[γGlu][AEEA][AEEA][dQ]RP[NMeR][Cha]S[Dap]KG[Oic][Nle][β3hP][d(β3hF)]-OH
SMILES: CCCCCCCCCCCCCCCC(=O)N[C@@H](CCC(=O)NCCOCCOCC(=O)NCCOCCOCC(=O)N[C@H](CCC(N)=O)C(=O)N[C@@H](CCCNC(=N)N)C(=O)N1CCC[C@H]1C(=O)N(C)[C@@H](CCCNC(=N)N)C(=O)N[C@@H](CC1CCCCC1)C(=O)N[C@@H](CO)C(=O)N[C@@H](CN)C(=O)N[C@@H](CCCCN)C(=O)NCC(=O)N1[C@H](C(=O)N[C@@H](CCCC)C(=O)N2CCC[C@H]2CC(=O)N[C@@H](CC(=O)O)Cc2ccccc2)C[C@@H]2CCCC[C@@H]21)C(=O)O
B11: SEQ ID NO: 619 (peptide)
peptide: Palmitoyl-[γGlu][AEEA][AEEA][dQ]RP[NMeR][Cha]SH[αMeOrn]G[Oic][Nle][β3hP][d(β3hF)]-OH
SMILES: CCCCCCCCCCCCCCCC(=O)N[C@@H](CCC(=O)NCCOCCOCC(=O)NCCOCCOCC(=O)N[C@H](CCC(N)=O)C(=O)N[C@@H](CCCNC(=N)N)C(=O)N1CCC[C@H]1C(=O)N(C)[C@@H](CCCNC(=N)N)C(=O)N[C@@H](CC1CCCCC1)C(=O)N[C@@H](CO)C(=O)N[C@@H](Cc1c[nH]cn1)C(=O)N[C@@](C)(CCCN)C(=O)NCC(=O)N1[C@H](C(=O)N[C@@H](CCCC)C(=O)N2CCC[C@H]2CC(=O)N[C@@H](CC(=O)O)Cc2ccccc2)C[C@@H]2CCCC[C@@H]21)C(=O)O

Experiments:
[1] = target: T1, rat APJ receptor; experiment: cell-based or functional assay
[2] = target: T2, human APJ receptor; experiment: cell-based or functional assay

Row | Binder | EC50 Rat APJ Receptor [1] | EC50 Human APJ Receptor [2]
1 | B1 | 0.0246 µM | 0.0122 µM
2 | B2 | 0.0997 µM | 0.021 µM
3 | B3 | 0.02 µM | 0.0111 µM
4 | B4 | 0.0388 µM | 0.00166 µM
5 | B5 | 0.00916 µM | 0.00143 µM
6 | B6 | > 4.17 µM | 0.0107 µM
7 | B7 | 0.0261 µM | 0.0164 µM
8 | B8 | 0.0197 µM | 0.0118 µM
9 | B9 | 0.0149 µM | 0.00742 µM
10 | B10 | 0.0173 µM | 0.00276 µM
11 | Palmitoyl-[AC4Abu][AEEA][AEEA][dQ]RP[NMeR][Cha]S[NPrGly]KG[Pip′][Nle][Aib][Phe(4-Cl)]-OH [SEQ ID NO: 644] | 0.00419 µM | 0.0014 µM
12 | B11 | 0.125 µM | 0.0262 µM
